Like-named read-outs stand apart in the source and are kept apart here.
How the values were obtained:
[1] = Pulsating bubble surfactometry (PBS), dynamic-bubble mode, 20 cpm; assay type: physicochemical
Method: (§1) Surfactant Sample Preparation: The lipids DPPC, POPG, and PA were individually dissolved in a chloroform/methanol solution (3/1 [v/v]) to a known concentration (˜2 or 4 mg mL^−1). Single-lipid solutions were then combined by volume at the ratio of DPPC:POPG:PA, 68:22:9 [wt:wt:wt] and to a known total lipid concentration (˜2 mg mL^−1). This well-characterized and well-known lipid formulation is considered an adequate mimic of the non-protein (lipid) fraction of LS.^45 The peptides, peptoid, and copolymers were individually dissolved in methanol from a lyophilized powder to a known concentration (1-2 mg mL^−1). For the PBS studies, the peptides, peptoids, and polymers were ‘spiked’ into the lipid mixture at 10 wt % relative to the total lipid content (9.1 absolute wt %), and to a final concentration of ˜1 mg lipid mL^−1. For comparative purposes, the inclusion of peptide/peptoid/copolymer at 10 wt % corresponds to 10 wt % SP-B1-25 (9.1 absolute wt %) relative to the total lipid content. The total combined protein fraction in natural LS is estimated to be ˜10 wt %.^18 For PBS experiments, all σ reported is the standard deviation of the mean.
(§2) Pulsating Bubble Surfactometry: A commercial PBS instrument (General Transco, Largo, Fla.), modified with a direct, real-time imaging system, which has been previously described and validated in detail,^44 was utilized to obtain both static-mode and dynamic-mode data. Samples were dried from chloroform/methanol 3/1 [v/v] in Eppendorf tubes using a DNA 120 speedvac (Thermo Electron, Holbrook, N.Y.), forming a pellet. The pellet was suspended in buffer (150 mM NaCl, 10 mM HEPES, 5 mM CaCl2, pH 6.9) to 1.0 mg lipid mL^−1, with a final known volume of ˜70 μL. The samples were then mixed with a pipette 20 times, sonicated with a Fisher Model 60 probe sonicator for two 15 second spurts, and then mixed again 20 times to form a dispersed suspension. Samples were then loaded into a small plastic sample chamber (General Transco) using a modified leak-free methodology.^43,44 The sample chamber was then placed in the instrument, surrounded by a water bath held at 37° C. A bubble with a radius of 0.4 mm was then formed, and surface area was monitored throughout the experiment.
(§3) Static-mode adsorption data were collected for 20 minutes, where the suspension was allowed to adsorb to the bubble surface over time. […] Dynamic-mode data were then subsequently obtained for each sample at the adult respiratory cycle frequency of 20 cpm for 10 minutes, with a 50% reduction in surface area per pulsation cycle. PBS experiments were repeated three to six times for each sample to ensure repeatability. Representative PBS loops are presented at five minutes of cycling, and indicate clockwise bubble expansion and counterclockwise compression (see FIGS. 6A, 6B, 6C, and 6D). Average γ±σ at selected time intervals are listed in the Examples for both data collection modes. Percent compression is defined here as 100*[(SAmax−SA20)/(SAmax)], where SAmax was the maximum SA value at expansion, and SA20 was the SA at which γ first reaches 20 mN m^−1 upon compression (FIG. 5).
Pulsating Bubble Surfactometry: Dynamic-Bubble Mode. The dynamic surfactant activity during changes in volume or film surface area provides an indication of film sustainability over time. Bubble pulsation at the approximate adult respiratory rate of 20 cycles per minute (cpm) in PBS dynamic-bubble mode at 37° C. permits a simplified evaluation of such dynamic film behavior.^44 In dynamic mode, after static-bubble adsorption, the bubble was subsequently pulsed for 10 minutes and y was recorded with respect to surface area. FIGS. 4A, 4B, 4C, and 4D depict the attained maximum and minimum γ (γmax/min) at 5 minutes of cycling for all lipid films containing polymers or positive controls. Mean γmax/min's±σ at selected time intervals for up to 10 minutes of cycling are located in Tables 4 and 5. […]

[2] = Pulsating bubble surfactometry (PBS), static-bubble mode adsorption; assay type: physicochemical; details: 37° C., mimic 10 wt % in TL, originally synthesized polymers
Method: as §1, §2, §3
Pulsating Bubble Surfactometry: Static-Bubble Mode. The immediate adsorptive, γ-reducing effect, and stability of the films over time at a bubble […] interface were assessed via PBS in static-bubble mode. […]

[3] = at 5 minutes, static-bubble mode, TL film; cited from earlier work
[4] = dynamic-bubble mode, cited from earlier work
[5] = 5 minutes of dynamic-bubble cycling, 20 cpm, 37° C. (FIGS. 4A-4D)
[6] = dynamic-bubble pulsation, 1 min, 37° C., mimic 10 wt % in TL, originally synthesized polymers
[7] = dynamic-bubble pulsation, 2.5 min, 37° C., mimic 10 wt % in TL, originally synthesized polymers
[8] = dynamic-bubble pulsation, 10 min, 37° C., mimic 10 wt % in TL, originally synthesized polymers

Row | Molecule | γmax [1, 5] | γmin [1, 5] | Avg % Comp: percent bubble surface area compression required to reach 20 mN m-1 upon compression ([1]; at 5 minutes of dynamic-bubble pulsation on the PBS, 37° C.) | γ max Avg, 1 min [1, 6] | γ min Avg, 1 min [1, 6] | γ max Avg, 2.5 min [1, 7] | γ min Avg, 2.5 min [1, 7] | γ max Avg, 10 min [1, 8] | γ min Avg, 10 min [1, 8] | γ 1 min Avg (mean surface tension) ([2]; 1 min) | γ 2.5 min Avg (mean surface tension) ([2]; 2.5 min) | γ 5 min Avg (mean surface tension) ([2]; 5 min) | γ 10 min Avg (mean surface tension) ([2]; 10 min) | γeq 20 min Avg (mean surface tension) ([2]; 20 min) | adsorbed γ [3] | γmax ([4]; PBS cycling loop) | γmin ([4]; PBS cycling loop) | percent compression to reach 20 mN m^−1 [4]
1 | SP-B1-25: modified peptide SP-B1-25 (Cys8,11→Ala), surface-active peptide fragment of SP-B, positive control (FPIPLPYAWLARALIKRIQAMIPKG; Pulmonary surfactant-associated protein B in Tanaka lipid film; UniProt P07988 201-225, looked up, variant C8A C11A) | ~50 mN m^−1 | near zero | 33.2% | 49.6 mN m−1 | <1 mN m−1 | 49.9 mN m−1 | <1 mN m−1 | 49.8 mN m−1 | <1 mN m−1 | 40.5 mN m−1 | 39.4 mN m−1 | 37.9 mN m−1 | 36.8 mN m−1 | 35.6 mN m−1 | – | – | – | –
2 | SP-B: porcine-derived lung surfactant protein B in the Tanaka lipid film (protein, UniProt P15782 1-79, looked up, Pulmonary surfactant-associated protein B in Tanaka lipid film) Pulmonary …: FPIPLPFCWLCRTLIKRIQAVVPKGVLLKAVAQVCHVVPLPVGGICQCLAERYIVICLNMLLDRTLPQLVCGLVLRCSS | – | – | – | – | – | – | – | – | – | – | – | – | – | – | ~26 mN m^−1 | ~36 mN m^−1 | near-zero | ~21%

Reference: patent US9044392B2, “Nylon-3 co-polymers and synthetic lung surfactant compositions containing same” (Wisconsin Alumni Research Foundation, priority 2010, dated 2015)
